{"source": "patent CN106928350A", "about": "(TIANJIN INST IND BIOTECHNOLOGY CAS; SUZHOU GENEWIZ …, dated 2017)", "binders": {"B1": {"name": "AF4H1K1 (antibody, V domains shown)", "VH": "QVQLVESGGGVVQPGTSLRLSCEASGFTSSAYAMHWVRQAPGKGLEWVAVITFDGGYQYYADSVKGRFTISRDISRNTLHLHMNSLRAEDTAVYYCARDPLTKLLPFDWVSGGYFDYWGQGTLVTVSS", "VL": "not shown", "notes": "also called AF4H1K1 IgG; AF4H1K1IgG"}}, "key": {"[1]": {"target": "T1, HA of H4 (A/duck/Czech/1956)/PR8 H4N1 (PR8-RS) (Influenza A virus A/duck/Czech/1956 (H4), UniProt P19696 17-564)", "T1 construct": "whole, on cells", "assay": "immunofluorescence on virus-infected MDCK cells, antibody 40μg/mL"}, "[2]": {"target": "T2, HA of A/PuertoRico/8/1934 H1N1 (Influenza A virus A/PuertoRico/8/1934 …, UniProt P03452 18-565)", "T2 construct": "whole, on cells; also called PR8", "assay": "immunofluorescence on virus-infected MDCK cells"}}}
{"binder": "B1", "values": [{"measurement": "binding result", "setting": "[1]", "value": "binds"}, {"measurement": "binding result", "setting": "[2]", "value": "no binding (tested: 40μg/mL)"}]}
